In publication PMC4188797 (Neuropharmacology, 2014):

Target: the molecule itself
Experiment: SDS-PAGE and immunoblot of dimer bands in subcellular fractions

B1: metabotropic glutamate receptor 1 splice variant mGluR1b (endogenous, rat brain) (receptor, rat (endogenous in rat brain), UniProt P23385-2 19-906, looked up)
chain: LPRMPDRKVLLAGASSQRSVARMDGDVIIGALFSVHHQPPAEKVPERKCGEIREQYGIQRVEAMFHTLDKINADPVLLPNITLGSEIRDSCWHSSVALEQSIEFIRDSLISIRDEKDGLNRCLPDGQTLPPGRTKKPIAGVIGPGSSSVAIQVQNLLQLFDIPQIAYSATSIDLSDKTLYKYFLRVVPSDTLQARAMLDIVKRYNWTYVSAVHTEGNYGESGMDAFKELAAQEGLCIAHSDKIYSNAGEKSFDRLLRKLRERLPKARVVVCFCEGMTVRGLLSAMRRLGVVGEFSLIGSDGWADRDEVIEGYEVEANGGITIKLQSPEVRSFDDYFLKLRLDTNTRNPWFPEFWQHRFQCRLPGHLLENPNFKKVCTGNESLEENYVQDSKMGFVINAIYAMAHGLQNMHHALCPGHVGLCDAMKPIDGRKLLDFLIKSSFVGVSGEEVWFDEKGDAPGRYDIMNLQYTEANRYDYVHVGTWHEGVLNIDDYKIQMNKSGMVRSVCSEPCLKGQIKVIRKGEVSCCWICTACKENEFVQDEFTCRACDLGWWPNAELTGCEPIPVRYLEWSDIESIIAIAFSCLGILVTLFVTLIFVLYRDTPVVKSSSRELCYIILAGIFLGYVCPFTLIAKPTTTSCYLQRLLVGLSSAMCYSALVTKTNRIARILAGSKKKICTRKPRFMSAWAQVIIASILISVQLTLVVTLIIMEPPMPILSYPSIKEVYLICNTSNLGVVAPVGYNGLLIMSCTYYAFKTRNVPANFNEAKYIAFTMYTTCIIWLAFVPIYFGSNYKIITTCFAVSLSVTVALGCMFTPKMYIIIAKPERNVRSAFTTSDVVRMHVGDGKLPCRSNTFLNIFRRKKPGAGNAKKRQPEFSPSSQCPSAHAQL
stoichiometry N: 2
